The record followed here is patent US20170275368A1 (Hoffmann-La Roche, published 2017).

The target of test [1] is T1, full-length wildtype CSF-1R (wt CSF-1R) (human, UniProt P07333 20-972). Put plainly: cell-based or functional assay.
The target of test [2] is mutant CSF-1R L301S Y969F (human) (UniProt P07333). The test can be described thus: cell-based or functional assay.
Test [3] deals with CSF-1R ECD (R&D-Systems 329-MR or in-house subcloned pCMV-presS-HisAvitag-hCSF-1R-ECD) (human) (UniProt P07333). Put plainly: SPR (BIACORE A100) at 35 C; antibody captured, CSF-1R ECD in solution; Langmuir 1:1.
Test [4] addresses huCSF-1R-huFc chimera (soluble extracellular domain) (human) (UniProt P07333). Put plainly: competition ELISA: inhibition of CSF-1 binding to immobilised huCSF-1R-huFc chimera. On the technique in general: In an ELISA, binding on a coated surface is turned into a signal by an enzyme label.
Test [5] concerns the target CSF-1R (R&D-Systems Cat. No. 329-MR) (human) (UniProt P07333). Put plainly: SPR cross-competition at 25 C; response of Antibody 2 on CSF-1R held by captured Antibody 1; competitor <CSF-1R>7G5.3B6 (Antibody 1).
The target is the same in test [6]. Put plainly: SPR cross-competition at 25 C; response of Antibody 2 on CSF-1R held by captured Antibody 1; competitor SC-02, clone 2-4A5 (Antibody 1, same antibody).
In test [7] the target is CSF-1R ECD (R&D-Systems 329-MR or in-house subcloned pCMV-presS-HisAvitag-hCSF-1R-ECD) (human, UniProt P07333 20-517). Put plainly: SPR (BIACORE A100) at 35 C; antibody captured by anti mouse Fc gamma, CSF-1R ECD in solution; Langmuir 1:1. Here is the method: CSF-1R ECD (R&D-Systems 329-MR or in-house subcloned pCMV-presS-HisAvitag-hCSF-1R-ECD were added in various concentrations in solution. Association was measured by an CSF-1R-injection of 1.5 minutes at 35° C.; dissociation was measured by washing the chip surface with buffer for 10 minutes at 35° C. Anti CSF-IR SC-02, clone 2-4A5 (Santa Cruz Biotechnology, US; see also Sherr, C. J., et al., Cell 41 (1985) 665-676), which inhibits the ligand-receptor interaction, was used as reference control.
(In general: SPR reads the build-up and loss of mass on a sensor chip optically.)

Test [8] addresses T2, huCSF-1R-huFc chimera (soluble extracellular domain) (human, UniProt P07333 20-517).
T2 construct: also called huCSF-1R ECDhuFc chimera; not shown: human Fc part
The test can be described thus: competition ELISA: inhibition of CSF-1 binding to immobilised huCSF-1R-huFc chimera. The method, then:
At the beginning, plates were coated with […] goat F(ab′)₂ biotinylated anti Fcγ (Jackson ImmunoResearch., Cat. No. 109-006-170) for 1 hour (h).
Thereafter the wells were blocked with PBS supplemented with 0.2% TWEEN®-20 and 2% BSA (Roche Diagnostics GmbH, DE) for 0.5 h. 75 ng/ml of huCSF-1R-huFc chimera (soluble extracellular domain) was immobilized to plate for 1 h. Then dilutions of purified antibodies in PBS/0.05% Tween20/0.5% BSA were incubated for 1 h. After adding a mixture of 3 ng/ml CSF-1 (Biomol, DE, Cat. No. 60530), 50 ng/ml biotinylated anti CSF-1 clone BAF216 (R&D Systems, UK) and 1:5000 diluted streptavidin HRP (Roche Diagnostics GmbH, DE, Cat. No. 11089153001) for 1 h the plates were washed 6 times with PBST. Anti CSF-IR SC-02, clone 2-4A5 (Santa Cruz Biotechnology, ITS), which inhibits the ligand-receptor interaction, was used as positive control. Plates were developed with freshly prepared BM BLUE® POD substrate solution (BM BLUE®: 3,3′-5,5′-Tetramethylbenzidine, Roche Diagnostics GmbH, DE, Cat. No. 11484281001) for 30 minutes at RT. Absorbance was measured at 370 nm. […] Anti CSF-1R SC-02, clone 2-4A5 (Santa Cruz Biotechnology, US), which inhibits the ligand-receptor interaction, was used as reference control.

Test [9] deals with T1, full-length wildtype CSF-1R (wt CSF-1R). The test can be described thus: cell-based or functional assay. The source holds these as a separate data set.
Test [10] shares this target. Put plainly: cell-based or functional assay. The source holds these as a separate data set.

Like-named read-outs stand apart in the source and are kept apart here.

As a reminder, the Kd is the free concentration of one partner at which half of the binding sites on the other are occupied at equilibrium, for simple one-to-one binding. Read a low Kd as a tighter complex. For orientation: koff means a measure of how fast the partners let go of each other. The low end stands for a long-lived complex, the high end for a short-lived complex. As a reminder, the kon is the rate constant with which the complex forms. The term IC50 denotes the midpoint of a concentration-inhibition curve. Read a low IC50 as greater potency in that assay.

CSF-1R ECD (R&D-Systems 329-MR or in-house subcloned pCMV-presS-HisAvitag-hCSF-1R-ECD) (human), sequence (P07333 20-517 limits assumed): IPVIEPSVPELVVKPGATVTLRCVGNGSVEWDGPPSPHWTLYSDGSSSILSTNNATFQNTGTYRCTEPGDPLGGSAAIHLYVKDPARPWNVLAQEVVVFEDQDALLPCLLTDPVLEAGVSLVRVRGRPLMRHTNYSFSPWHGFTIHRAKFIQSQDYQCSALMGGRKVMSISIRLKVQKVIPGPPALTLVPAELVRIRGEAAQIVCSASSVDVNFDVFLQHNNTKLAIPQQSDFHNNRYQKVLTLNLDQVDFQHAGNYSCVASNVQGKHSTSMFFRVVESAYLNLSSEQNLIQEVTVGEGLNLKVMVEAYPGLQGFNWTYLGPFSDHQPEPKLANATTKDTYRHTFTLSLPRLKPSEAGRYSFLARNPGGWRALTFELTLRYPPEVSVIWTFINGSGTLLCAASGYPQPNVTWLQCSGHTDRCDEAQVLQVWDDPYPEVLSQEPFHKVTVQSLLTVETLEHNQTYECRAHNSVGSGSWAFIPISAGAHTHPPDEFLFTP
CSF-1R ECD (R&D-Systems 329-MR or in-house subcloned pCMV-presS-HisAvitag-hCSF-1R-ECD), sequence (P07333 20-517 limits assumed): as above
T1 sequence (P07333 20-972 limits assumed): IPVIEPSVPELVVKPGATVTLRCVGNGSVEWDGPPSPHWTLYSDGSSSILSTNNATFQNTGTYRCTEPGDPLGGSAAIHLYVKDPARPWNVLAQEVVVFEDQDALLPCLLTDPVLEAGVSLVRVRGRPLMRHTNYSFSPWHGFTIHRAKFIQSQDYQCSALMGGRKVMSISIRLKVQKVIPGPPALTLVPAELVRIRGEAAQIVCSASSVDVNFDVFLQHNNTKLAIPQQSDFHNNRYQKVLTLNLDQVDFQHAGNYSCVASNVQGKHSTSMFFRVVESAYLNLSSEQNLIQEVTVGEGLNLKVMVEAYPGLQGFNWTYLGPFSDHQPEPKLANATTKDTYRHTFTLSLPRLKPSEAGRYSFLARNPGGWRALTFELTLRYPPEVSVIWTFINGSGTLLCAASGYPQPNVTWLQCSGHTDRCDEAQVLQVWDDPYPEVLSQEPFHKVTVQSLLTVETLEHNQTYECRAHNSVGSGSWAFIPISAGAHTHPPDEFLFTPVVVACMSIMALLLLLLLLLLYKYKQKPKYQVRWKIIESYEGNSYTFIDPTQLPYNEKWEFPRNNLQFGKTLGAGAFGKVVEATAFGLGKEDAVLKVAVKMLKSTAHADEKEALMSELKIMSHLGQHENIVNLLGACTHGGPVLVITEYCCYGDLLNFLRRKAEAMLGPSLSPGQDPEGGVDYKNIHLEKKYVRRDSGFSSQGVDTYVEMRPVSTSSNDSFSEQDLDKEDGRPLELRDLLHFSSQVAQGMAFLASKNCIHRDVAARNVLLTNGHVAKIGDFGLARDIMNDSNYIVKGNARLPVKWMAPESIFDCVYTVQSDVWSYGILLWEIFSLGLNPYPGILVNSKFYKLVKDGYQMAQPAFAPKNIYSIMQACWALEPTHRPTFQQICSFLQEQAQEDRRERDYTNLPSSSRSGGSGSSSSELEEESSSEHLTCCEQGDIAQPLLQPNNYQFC
CSF-1R (R&D-Systems Cat. No. 329-MR) (human), sequence (P07333 20-517 limits assumed): as the sequence (P07333 20-517 limits assumed) above
huCSF-1R-huFc chimera (soluble extracellular domain) (human), sequence (P07333 20-517, change not shown): as the sequence (P07333 20-517 limits assumed) above
T2 sequence (P07333 20-517, change not shown): as the sequence (P07333 20-517 limits assumed) above
mutant CSF-1R L301S Y969F (human), sequence (P07333 20-972 L301S/Y969F limits assumed): as the sequence (P07333 20-972 limits assumed) above, with L282S, Y950F counted along it

As to “Anti CSF-1R SC-02, clone 2-4A5 (Santa Cruz Biotechnology) (antibody)”, in test [1], the % inhibition of CSF-1 induced growth of BeWo tumor cells, 10 ug/ml antibody concentration was 40%; the % survival of NIH3T3 cells expressing wt CSF-1R, 10 ug/ml antibody (…-GLO) came out at 62%; the IC50 CSF-1R Phosphorylation was 412 ng/mL; the IC50 [nM] of inhibition of monocyte survival (…-GLO) came to 2.4 nM. Also, the % survival of NIH3T3 cells expressing mutant CSF-1R L301S Y969F, 10 ug/ml antibody (…-GLO) in test [2] came to 66%. In test [3], this molecule yielded a Kd of 2.73 nM, a koff of 0.00139 s⁻¹, a kon of 509000 M⁻¹ s⁻¹ and a t1/2 of 8.31 min. Also, the half-inhibitory concentration (IC50) in test [4] stood at 0.0309 µg/mL. In [5], the percentage (%) of expected binding response came out at 36%. The percentage (%) of expected binding response in test [6] is -2%.

B1: <CSF-1R>7G5.3B6 (antibody, V domains shown)
VH: EIQLQQSGPELVKPGASVRVSCKPSGYSFTDYNMYWVRQSHGKSLDWIGYIDPYNGGTTYNQKFRGKATLTVDKSSSTAFMHLNSLTSEDSAVYYCARGGDEYYFDYWGQGTTLTVSS
VL: DIVMSQSPSSLAVSVGEKVTMSCKSSQSLLDSRNQKNYLAWYQQKPGQSPKLLIYWASTRESGVPDRFTGSGSGTDFTLTISSVKAEDLAVYYCQQYYSYPPTFGGGTKLEIKR
notes: Mouse monoclonal antibody from hybridoma DSM ACC2921 (NMRI mice), tested as purified hybridoma antibody; also called deposited antibody DSM ACC2921
On to B1, for which, in test [7], the Kd stood at 0.61 nM, the koff amounted to 0.0049 s⁻¹, the kon worked out at 8e+06 M⁻¹ s⁻¹ and the “t1/2” value is 2.37 min. The molecule further gave an IC50 in [8] of 0.0188 µg/mL. Further, the “IC50 [nM] of inhibition of monocyte survival (…-GLO)” value in test [9] was 0.4 nM. For the same molecule, in [10], the “IC50 CSF-1R Phosphorylation” value was below 11 ng/mL.
